pIC50: −log10 of the molar value.
Target: human angiotensin-converting enzyme 2 extracellular domain fused to mouse Fc (hACE2-ECD-mFc) (human) (UniProt Q9BYF1)
Assay: ELISA

Chain of human angiotensin-converting enzyme 2 extracellular domain fused to mouse Fc (hACE2-ECD-mFc) (human) (Q9BYF1 19-617): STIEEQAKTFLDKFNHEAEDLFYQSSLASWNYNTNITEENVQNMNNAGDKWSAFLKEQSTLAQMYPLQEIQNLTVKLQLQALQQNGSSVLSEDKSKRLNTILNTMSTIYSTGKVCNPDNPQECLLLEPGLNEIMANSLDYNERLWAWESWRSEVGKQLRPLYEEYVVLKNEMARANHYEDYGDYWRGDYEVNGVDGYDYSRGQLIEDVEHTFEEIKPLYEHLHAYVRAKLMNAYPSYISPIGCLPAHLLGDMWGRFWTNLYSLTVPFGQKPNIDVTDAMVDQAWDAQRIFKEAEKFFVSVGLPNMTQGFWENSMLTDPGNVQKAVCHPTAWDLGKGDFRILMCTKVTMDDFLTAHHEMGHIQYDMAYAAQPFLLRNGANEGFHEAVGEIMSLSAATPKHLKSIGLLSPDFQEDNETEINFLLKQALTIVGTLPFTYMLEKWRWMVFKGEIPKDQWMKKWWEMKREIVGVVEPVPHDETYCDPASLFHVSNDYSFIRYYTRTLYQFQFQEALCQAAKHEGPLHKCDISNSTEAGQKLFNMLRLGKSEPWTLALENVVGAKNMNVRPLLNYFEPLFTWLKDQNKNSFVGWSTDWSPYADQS

SARS-CoV-2 S-RBD reference (spike receptor-binding domain, reference type) (from UniProt P0DTC2 319-541) (domain or fragment)
pIC50: 6.91
